Consider ten molecules from patent US20230235012A1 (ALPINE IMMUNE SCIENCES, published 2023).

Substitutions are numbered along the chain they refer to. In names and notes the source's numbering stands. Several values for one entry are separate records, joined by “and”; a condition that tells them apart may be missing. Identical values can stand only once.

T1: human ICOS (human, UniProt Q9Y6W8 21-199)
T1 construct: whole, on cells
T1 sequence (looked up): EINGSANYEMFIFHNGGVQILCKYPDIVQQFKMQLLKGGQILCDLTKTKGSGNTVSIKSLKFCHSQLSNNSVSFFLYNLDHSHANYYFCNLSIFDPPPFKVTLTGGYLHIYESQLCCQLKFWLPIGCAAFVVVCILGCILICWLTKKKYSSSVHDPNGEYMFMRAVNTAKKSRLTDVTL

B1: variant ICOSL ECD-Fc F120S/Y152H/N201S (Fc fusion)
chain: DTQEKEVRAMVGSDVELSCACPEGSRFDLNDVYVYWQTSESKTVVTYHIPQNSSLENVDSRYRNRALMSPAGMLRGDFSLRLFNVTPQDEQKFHCLVLSQSLGFQEVLSVEVTLHVAANSSVPVVSAPHSPSQDELTFTCTSINGYPRPNVHWINKTDNSLLDQALQNDTVFLNMRGLYDVVSVLRIARTPSVNIGCCIESVLLQQNLTVGSQTGNDIGERDKITENPVSTGEKNAATAAAEPKSSDKTHTCPPCPAPELLGGPSVFLFPPKPKDTLMISRTPEVTCVVVDVSHEDPEVKFNWYVDGVEVHNAKTKPCEEQYGSTYRCVSVLTVLHQDWLNGKEYKCKVSNKALPAPIEKTISKAKGQPREPQVYTLPPSREEMTKNQVSLTCLVKGFYPSDIAVEWESNGQPENNYKTTPPVLDSDGSFFLYSKLTVDKSRWQQGNVFSCSVMHEALHNHYTQKSLSLSPGK
B2: variant ICOSL ECD-Fc S54F/V193A (Fc fusion)
chain: B1 chain with S54F, S120F, H152Y, V193A, S201N
B3: ICOSL IgV with N52H/N57Y/Q100R, Fc fusion (Fc fusion)
chain: DTQEKEVRAMVGSDVELSCACPEGSRFDLNDVYVYWQTSESKTVVTYHIPQHSSLEYVDSRYRNRALMSPAGMLRGDFSLRLFNVTPQDEQKFHCLVLSRSLGFQEVLSVEVTLHVAANFSVGGGGSGGGGSEPKSSDKTHTCPPCPAPEAEGAPSVFLFPPKPKDTLMISRTPEVTCVVVDVSHEDPEVKFNWYVDGVEVHNAKTKPREEQYNSTYRVVSVLTVLHQDWLNGKEYKCKVSNKALPAPIEKTISKAKGQPREPQVYTLPPSREEMTKNQVSLTCLVKGFYPSDIAVEWESNGQPENNYKTTPPVLDSDGSFFLYSKLTVDKSRWQQGNVFSCSVMHEALHNHYTQKSLSLSPG
notes: also called ICOSCL IgV with N52H/N57Y/Q100R
B4: ICOSL ECD Truncation #4 with N52H/N57Y/Q100R/F172S, Fc fusion (Fc fusion)
chain: DTQEKEVRAMVGSDVELSCACPEGSRFDLNDVYVYWQTSESKTVVTYHIPQHSSLEYVDSRYRNRALMSPAGMLRGDFSLRLFNVTPQDEQKFHCLVLSRSLGFQEVLSVEVTLHVAANFSVPVVSAPHSPSQDELTFTCTSINGYPRPNVYWINKTDNSLLDQALQNDTVSLNMRGLYDVVSVLRIARTPSVNIGCCIENVLLQQNGGGGSGGGGSEPKSSDKTHTCPPCPAPEAEGAPSVFLFPPKPKDTLMISRTPEVTCVVVDVSHEDPEVKFNWYVDGVEVHNAKTKPREEQYNSTYRVVSVLTVLHQDWLNGKEYKCKVSNKALPAPIEKTISKAKGQPREPQVYTLPPSREEMTKNQVSLTCLVKGFYPSDIAVEWESNGQPENNYKTTPPVLDSDGSFFLYSKLTVDKSRWQQGNVFSCSVMHEALHNHYTQKSLSLSPG
B5: ICOSL ECD Truncation #7 with N52H/N57Y/Q100R/F172S, Fc fusion (Fc fusion)
chain: DTQEKEVRAMVGSDVELSCACPEGSRFDLNDVYVYWQTSESKTVVTYHIPQHSSLEYVDSRYRNRALMSPAGMLRGDFSLRLFNVTPQDEQKFHCLVLSRSLGFQEVLSVEVTLHVAANFSVPVVSAPHSPSQDELTFTCTSINGYPRPNVYWINKTDNSLLDQALQNDTVSLNMRGLYDVVSVLRIARTPSVNIGCCIENGGGGSGGGGSEPKSSDKTHTCPPCPAPEAEGAPSVFLFPPKPKDTLMISRTPEVTCVVVDVSHEDPEVKFNWYVDGVEVHNAKTKPREEQYNSTYRVVSVLTVLHQDWLNGKEYKCKVSNKALPAPIEKTISKAKGQPREPQVYTLPPSREEMTKNQVSLTCLVKGFYPSDIAVEWESNGQPENNYKTTPPVLDSDGSFFLYSKLTVDKSRWQQGNVFSCSVMHEALHNHYTQKSLSLSPG
B6: ICOSL ECD with N52H/N57Y/Q100R/F172S, (G4S)2-Fc fusion (Fc fusion)
chain: DTQEKEVRAMVGSDVELSCACPEGSRFDLNDVYVYWQTSESKTVVTYHIPQHSSLEYVDSRYRNRALMSPAGMLRGDFSLRLFNVTPQDEQKFHCLVLSRSLGFQEVLSVEVTLHVAANFSVPVVSAPHSPSQDELTFTCTSINGYPRPNVYWINKTDNSLLDQALQNDTVSLNMRGLYDVVSVLRIARTPSVNIGCCIENVLLQQNLTVGSQTGNDIGERDKITENPVSTGEKNAATGGGGSGGGGSEPKSSDKTHTCPPCPAPEAEGAPSVFLFPPKPKDTLMISRTPEVTCVVVDVSHEDPEVKFNWYVDGVEVHNAKTKPREEQYNSTYRVVSVLTVLHQDWLNGKEYKCKVSNKALPAPIEKTISKAKGQPREPQVYTLPPSREEMTKNQVSLTCLVKGFYPSDIAVEWESNGQPENNYKTTPPVLDSDGSFFLYSKLTVDKSRWQQGNVFSCSVMHEALHNHYTQKSLSLSPG
notes: also called ICOSCL ECD with N52H/N57Y/Q100R/F172S

One test has as its target human CD28, full length, expressed on cells (human) (UniProt P10747). Kind of test: flow cytometry, ECD-Fc on CD28-transfected HEK293 cells. (In flow cytometry, cells or beads pass a laser one at a time.)
With B1, the CD28 MFI parental ratio (ratio to WT ICOSL) worked out at 0.89.
Turning to B2, the CD28 MFI is 16 MFI and the CD28 MFI parental ratio (ratio to WT ICOSL) stood at 0.87.

A further test deals with T2, human CTLA-4 (human, UniProt P16410 36-223).
T2 construct: whole, on cells
T2 sequence (P16410 36-223): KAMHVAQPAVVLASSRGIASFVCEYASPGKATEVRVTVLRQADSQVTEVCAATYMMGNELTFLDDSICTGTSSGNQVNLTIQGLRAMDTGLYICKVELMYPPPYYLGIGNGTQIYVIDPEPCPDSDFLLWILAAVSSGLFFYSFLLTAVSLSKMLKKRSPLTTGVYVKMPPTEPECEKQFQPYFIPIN
The test can be described thus: flow cytometry, transfected cells; protein from CHO.
Consider B3, for which the MFI amounted to 9040 MFI and the “MFI ratio to WT” value was determined as 0.7 fold.
Regarding B4, the MFI amounted to 9000 MFI and the “MFI ratio to WT” value was determined as 0.7 fold.
The matching figures for B5: 9040 MFI and 0.7 fold.
The matching figures for B6: 8710 MFI and 0.7 fold.

For a further test, the target named is T1, human ICOS. The test is described as above.
Consider B3, for which the MFI came out at 8670 MFI and the “MFI ratio to WT” value was 0.7 fold.
The matching figures for B4: 7610 MFI and 0.7 fold.
Take B5: the MFI came out at 8080 MFI and the “MFI ratio to WT” value came to 0.7 fold.
The matching figures for B6: 12600 MFI and 1.1 fold.

The next test addresses T3, human CD28 (human, UniProt P10747 19-220).
T3 construct: whole, on cells
The test is described as above.
With B3, the MFI was 17300 MFI and the “MFI ratio to WT” value worked out at 4.9 fold.
The matching figures for B4: 12700 MFI and 3.6 fold.
The matching figures for B5: 13000 MFI and 3.7 fold.
The matching figures for B6: 14400 MFI and 4.1 fold.

The target of another test is T2, human CTLA-4. The test can be described thus: flow cytometry, transfected cells; protein from 293.
For B3, the MFI is 9670 MFI and the “MFI ratio to WT” value worked out at 0.8 fold.
As for B4, the MFI worked out at 8840 MFI and the “MFI ratio to WT” value came to 0.7 fold.
The matching figures for B5: 9670 MFI and 0.8 fold.
The matching figures for B6: 8180 MFI and 0.7 fold.

The next test concerns the target T1, human ICOS. Described as above.
Regarding B3, the MFI amounted to 9380 MFI and the “MFI ratio to WT” value came to 0.8 fold.
B4: the MFI amounted to 6890 MFI and the “MFI ratio to WT” value came to 0.6 fold.
The matching figures for B5: 7600 MFI and 0.7 fold.
The matching figures for B6: 16000 MFI and 1.4 fold.

The next test has as its target T3, human CD28. The test is described as above.
As to B3, the MFI was 16600 MFI and the “MFI ratio to WT” value was determined as 4.7 fold.
The matching figures for B4: 14700 MFI and 4.1 fold.
The matching figures for B5: 12000 MFI and 3.4 fold.
On to B6, for which the MFI was determined as 12900 MFI and the “MFI ratio to WT” value is 3.6 fold.

The target of another test is T3, human CD28. The test can be described thus: flow cytometry, CD28-transfected cells.
For “ICOSL F27S/N52H/N57Y/V110N ECD-Fc (Fc fusion)”, the MFI is 8610 MFI and 4160 MFI; the parental ratio of MFI was 1.92 fold vs WT and 0.93 fold vs WT.
Regarding “ICOSL Y47H/N52S/V107A/F120S ECD-Fc (Fc fusion)”, the parental ratio of MFI was determined as 0.31 fold vs WT.
Same read-out and setting: the figure for “ICOSL T43A/N52H/N57Y/L74Q/D89G/V110D/F172S ECD-Fc (Fc fusion)” is 0.49 fold vs WT; for “ICOSL N52H/N57Y/Q100R/V110D/V116A/L161M/F172S/S192G/C198R ECD-Fc (Fc fusion)” it is 0.93 fold vs WT.

Another test concerns the target T2, human CTLA-4. Kind of test: flow cytometry, transfected cells; protein from CHO. The source holds these as a separate data set.
For the molecule B3, the MFI amounted to 205000 MFI and the “MFI ratio to WT” value came out at 27 fold.
The matching figures for B4: 377000 MFI and 49.8 fold.
The matching figures for B6: 323000 MFI and 42.6 fold.

The target in another test is T1, human ICOS. The test is described as above. The source holds these as a separate data set.
With B3, the MFI was 118000 MFI and the “MFI ratio to WT” value is 1.2 fold.
The matching figures for B4: 133000 MFI and 1.3 fold.
The matching figures for B6: 136000 MFI and 1.4 fold.

Another test deals with T3, human CD28. Described as above. This is another data set of the same source.
As for B3, the MFI was determined as 84600 MFI and the “MFI ratio to WT” value was determined as 49 fold.
Turning to B4, the MFI is 68600 MFI and the “MFI ratio to WT” value is 39.7 fold.
Take B6: the MFI came to 110000 MFI and the “MFI ratio to WT” value worked out at 63.9 fold.
